Laboratory results published in publication PMC5593996.

Experiments:
[1] = target: second RNA-recognition motif (RRM2) of TDP-43, wild type, residues 191-265 (human) (UniProt Q13148); test: NMR HSQC peak intensities (fraction of globular monomer); reduced samples: first treated with 5 mM H2O2, then with 25 mM DTT
[2] = target: Q13148; test: as above; conditions: other: NMR HSQC peak intensities (fraction of globular monomer)
[3] = target: second RNA-recognition motif (RRM2) of TDP-43, wild type, residues 191-265 (human) (UniProt Q13148); test: cross-linking; disulfide-linked oligomers on non-reducing SDS-PAGE (14% tris-glycine, Coomassie, densitometry); 1 mM protein incubated 2 h with 5 mM H2O2
[4] = target: Q13148; test: dynamic light scattering + other: pulsed-field-gradient NMR diffusion; fully oxidized sample (5 mM H2O2, about 31 h); size distribution of aggregate particles fitted to both diffusion coefficients (Eq. 6), NMR on peak N265'
[5] = target: second RNA-recognition motif (RRM2) of TDP-43, wild type, residues 191-265 (human) (UniProt Q13148); test: NMR HSQC peak intensities (fraction of globular monomer); 1 mM RRM2 under oxidation with 5 mM H2O2 (2 h or 24 h); loss of monomer signals taken as conversion into oligomers and aggregate particles; standard phosphate buffer pH 6.7
[6] = target: Q13148; test: as above; conditions: other: NMR HSQC peak intensities (fraction of globular monomer)

B1: second RNA-recognition motif (RRM2) of TDP-43, wild type, residues 191-265 (protein)
chain: MRKVFVGRCTEDMTEDELREFFSQYGDVMDVFIPKPFRAFAFVTFADDQIAQSLCGEDLIIKGISVHISNAEPKHN
percent monomer in the reduced samples [1]: 84% | percent of protein mass still aggregated after 2 h oxidation and 3 h reduction [2]: ca. 19% of the protein by mass remains in the aggregate form | percent of protein mass still aggregated after 24 h oxidation and 24 h reduction [2]: ca. 40% of the protein mass in this sample remains in the aggregated state | fraction of cross-linked protein molecules (gel densitometry, 2 h with 5 mM H2O2) [3]: 40% | mass fraction of the aggregate mass in all other aggregate particles [4]: all other APs combined account for 83% of the aggregate mass | mass fraction of the aggregate mass that is disulfide-bonded dimers [4]: The mass fraction of the disulfide-bonded dimers is 17% | percent (mass fraction) left as globular monomer after 24 h with 5 mM H2O2 [5]: 4.5% | percent left as globular monomer after 2 h with 5 mM H2O2 [5]: 40% | percent of the protein in aggregate particles after 2 h with 5 mM H2O2 [6]: 60% (±4%) of the protein has been transformed into APs
